Measurements taken from PMC5066845.
Blank lines part the entries; values can stand above or below the substance they belong to.

Experiments:
[1] = biological target: F-actin polymerised on a streptavidin biosensor from biotinylated and non-biotinylated G-actin (1:4) (rabbit | human) (UniProt P68135); test: BLI
[2] = biological target: mouse DNGR-1 extracellular domain (ECD), wild type (mouse); test: BLI

Substance: mouse DNGR-1 ECD K251A (domain or fragment)
- Kd [1]: > 50000 nM

Substance: mouse DNGR-1 ECD W155A W250A (domain or fragment)
- Kd [1]: > 100000 nM

Substance: short F-actin filaments capped and stabilized with gelsolin (from UniProt P60709;P06396) (complex)
- Kd [2]: 8.7 nM
- koff [2]: 6.4e-05 s⁻¹
- kon [2]: 7600 M⁻¹ s⁻¹

Continued by falling Kd [1], values first:

- Kd [1]: 2700 nM
Substance: mouse DNGR-1 ECD N140A Y150A (domain or fragment)

- Kd [1]: 1600 nM
- koff [1]: 0.848 s⁻¹
- kon [1]: 1.5e+06 M⁻¹ s⁻¹
Substance: mouse DNGR-1 extracellular domain (ECD), wild type (domain or fragment)
